Test [1] addresses T1, 4H3843-bN.
T1 chain: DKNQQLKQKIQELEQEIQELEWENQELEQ
In words: two-hybrid library CCNG1.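 Further: natural log of median RNA to DNA barcode read ratio; higher means stronger binding.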

The target in test [2] is T2, 4H4001-bN.
T2 chain: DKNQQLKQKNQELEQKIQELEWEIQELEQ
In words: two-hybrid library CCNG1.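 Further: natural log of median RNA to DNA barcode read ratio; higher means stronger binding.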

The target in test [3] is T3, 4H462-bN.
T3 chain: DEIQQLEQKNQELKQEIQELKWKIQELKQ
Kind of test: two-hybrid library CCNG1.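 Further: natural log of median RNA to DNA barcode read ratio; higher means stronger binding.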

In test [4] the target is T4, 4H568-bN.
T4 chain: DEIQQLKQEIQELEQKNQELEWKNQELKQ
In words: two-hybrid library CCNG1.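 Further: natural log of median RNA to DNA barcode read ratio; higher means stronger binding.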

For test [5], the target named is T5, 4H607-bN.
T5 chain: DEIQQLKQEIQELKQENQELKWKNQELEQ
Kind of test: two-hybrid library CCNG1.

The target in test [6] is T6, 4H687-bN.
T6 chain: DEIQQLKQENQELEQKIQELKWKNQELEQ
In words: two-hybrid library CCNG1.

For test [7], the target named is T7, 4H72-bN.
T7 chain: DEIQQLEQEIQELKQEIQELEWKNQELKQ
In words: two-hybrid library CCNG1.

Test [8] concerns the target T8, 4H797-bN.
T8 chain: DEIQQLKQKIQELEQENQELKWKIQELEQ
In words: two-hybrid library CCNG1.

Test [9] concerns the target T9, 4H883-bN.
T9 chain: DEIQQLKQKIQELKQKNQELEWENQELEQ
Kind of test: two-hybrid library CCNG1.

In test [10] the target is T10, 4H918-bN.
T10 chain: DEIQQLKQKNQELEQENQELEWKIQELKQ
In words: two-hybrid library CCNG1.

In test [11] the target is T11, 4H953-bN.
T11 chain: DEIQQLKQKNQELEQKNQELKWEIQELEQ
Kind of test: two-hybrid library CCNG1.

Test [12] deals with T12, 4H967-bN.
T12 chain: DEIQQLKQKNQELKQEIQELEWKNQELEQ
In words: two-hybrid library CCNG1.

Test [13] concerns the target T13, zCON9_B.
T13 chain: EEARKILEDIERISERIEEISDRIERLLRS
Kind of test: two-hybrid library CCmax.

The target in test [14] is T14, zCON9_D.
T14 chain: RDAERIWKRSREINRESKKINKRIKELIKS
In words: two-hybrid library CCmax. The settings on record: mean of both orientations.

The target in test [15] is T15, 4H234-AA.
T15 chain: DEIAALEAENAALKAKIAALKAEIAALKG
In words: two-hybrid library CCmax.

Test [16] deals with T16, 4H2354-AA.
T16 chain: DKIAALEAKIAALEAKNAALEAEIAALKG
In words: two-hybrid library CCmax. The settings on record: mean of both orientations.

Test [17] has as its target T17, 4H2393-AA.
T17 chain: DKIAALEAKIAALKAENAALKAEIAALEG
In words: two-hybrid library CCmax. The settings on record: mean of both orientations.

Test [18] deals with T18, 4H2466-AA.
T18 chain: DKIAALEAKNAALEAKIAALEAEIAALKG
Kind of test: two-hybrid library CCmax. The settings on record: mean of both orientations.

Test [19] deals with T19, 4H2505-AA.
T19 chain: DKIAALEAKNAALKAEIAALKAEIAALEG
In words: two-hybrid library CCmax. The settings on record: mean of both orientations.

In test [20] the target is T20, 4H2575-AA.
T20 chain: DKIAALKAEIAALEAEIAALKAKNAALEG
Kind of test: two-hybrid library CCmax. The conditions noted are these: mean of both orientations.

In test [21] the target is T21, 4H2617-AA.
T21 chain: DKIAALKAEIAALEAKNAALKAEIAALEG
In words: two-hybrid library CCmax. The settings on record: mean of both orientations.

The target of test [22] is T22, 4H2642-AA.
T22 chain: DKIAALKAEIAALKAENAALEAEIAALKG
In words: two-hybrid library CCmax. The conditions noted are these: mean of both orientations.

The target in test [23] is T23, 4H2729-AA.
T23 chain: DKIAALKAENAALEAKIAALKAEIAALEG
In words: two-hybrid library CCmax. The conditions noted are these: mean of both orientations.

For test [24], the target named is T24, 4H2754-AA.
T24 chain: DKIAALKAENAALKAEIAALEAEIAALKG
In words: two-hybrid library CCmax. The settings on record: mean of both orientations.

In test [25] the target is T25, 4H2837-AA.
T25 chain: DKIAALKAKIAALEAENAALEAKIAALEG
Kind of test: two-hybrid library CCmax. The conditions noted are these: mean of both orientations.

Test [26] deals with T26, 4H2883-AA.
T26 chain: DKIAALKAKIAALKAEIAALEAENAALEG
Kind of test: two-hybrid library CCmax. The settings on record: mean of both orientations.

Test [27] addresses T27, 4H2944-AA.
T27 chain: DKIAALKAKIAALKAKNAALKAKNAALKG
Kind of test: two-hybrid library CCmax. The settings on record: mean of both orientations.

For test [28], the target named is T28, 4H2949-AA.
T28 chain: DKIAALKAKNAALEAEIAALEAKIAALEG
Kind of test: two-hybrid library CCmax. The conditions noted are these: mean of both orientations.

Test [29] concerns the target T29, 4H3112-AA.
T29 chain: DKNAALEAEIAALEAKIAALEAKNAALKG
In words: two-hybrid library CCmax. The settings on record: mean of both orientations.

In test [30] the target is T30, 4H317-AA.
T30 chain: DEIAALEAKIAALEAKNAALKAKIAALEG
In words: two-hybrid library CCmax. The settings on record: mean of both orientations.

Test [31] deals with T31, 4H3343-AA.
T31 chain: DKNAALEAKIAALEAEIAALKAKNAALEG
Kind of test: two-hybrid library CCmax. The conditions noted are these: mean of both orientations.

For test [32], the target named is T32, 4H335-AA.
T32 chain: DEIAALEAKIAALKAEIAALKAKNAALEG
Kind of test: two-hybrid library CCmax.

The target in test [33] is T33, 4H342-AA.
T33 chain: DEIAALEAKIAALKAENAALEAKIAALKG
Kind of test: two-hybrid library CCmax.

For test [34], the target named is T34, 4H3427-AA.
T34 chain: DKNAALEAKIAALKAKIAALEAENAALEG
Kind of test: two-hybrid library CCmax. The conditions noted are these: mean of both orientations.

The target in test [35] is T35, 4H3606-AA.
T35 chain: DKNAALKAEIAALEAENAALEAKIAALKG
Kind of test: two-hybrid library CCmax. The conditions noted are these: mean of both orientations.

Test [36] addresses T36, 4H3627-AA.
T36 chain: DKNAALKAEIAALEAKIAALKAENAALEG
In words: two-hybrid library CCmax. The conditions noted are these: mean of both orientations.

Test [37] addresses T37, 4H3655-AA.
T37 chain: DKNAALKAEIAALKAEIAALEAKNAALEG
In words: two-hybrid library CCmax. The settings on record: mean of both orientations.

Test [38] deals with T38, 4H3844-AA.
T38 chain: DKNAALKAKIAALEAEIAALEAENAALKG
In words: two-hybrid library CCmax. The settings on record: mean of both orientations.

In test [39] the target is T39, 4H3921-AA.
T39 chain: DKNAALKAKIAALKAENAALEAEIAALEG
Kind of test: two-hybrid library CCmax. The conditions noted are these: mean of both orientations.

Test [40] addresses T40, 4H429-AA.
T40 chain: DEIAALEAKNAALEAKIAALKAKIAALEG
Kind of test: two-hybrid library CCmax. The conditions noted are these: mean of both orientations.

Test [41] concerns the target T41, 4H454-AA.
T41 chain: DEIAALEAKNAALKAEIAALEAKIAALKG
Kind of test: two-hybrid library CCmax. The settings on record: mean of both orientations.

The target in test [42] is T42, 4H48-AA.
T42 chain: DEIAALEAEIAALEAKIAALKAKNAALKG
Kind of test: two-hybrid library CCmax. The settings on record: mean of both orientations.

Test [43] has as its target T43, 4H566-AA.
T43 chain: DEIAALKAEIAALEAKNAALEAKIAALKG
In words: two-hybrid library CCmax. The settings on record: mean of both orientations.

In test [44] the target is T44, 4H605-AA.
T44 chain: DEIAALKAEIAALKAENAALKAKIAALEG
In words: two-hybrid library CCmax. The conditions noted are these: mean of both orientations.

Test [45] concerns the target T45, 4H678-AA.
T45 chain: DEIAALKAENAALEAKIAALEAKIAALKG
Kind of test: two-hybrid library CCmax. The settings on record: mean of both orientations.

Test [46] deals with T46, 4H717-AA.
T46 chain: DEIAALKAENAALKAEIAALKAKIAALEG
Kind of test: two-hybrid library CCmax. The settings on record: mean of both orientations.

In test [47] the target is T47, 4H780-AA.
T47 chain: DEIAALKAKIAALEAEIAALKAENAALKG
In words: two-hybrid library CCmax. The settings on record: mean of both orientations.

Test [48] addresses T48, 4H794-AA.
T48 chain: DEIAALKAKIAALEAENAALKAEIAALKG
In words: two-hybrid library CCmax. The conditions noted are these: mean of both orientations.

Test [49] addresses T49, 4H881-AA.
T49 chain: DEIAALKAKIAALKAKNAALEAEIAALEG
Kind of test: two-hybrid library CCmax. The conditions noted are these: mean of both orientations.

Test [50] addresses T50, 4H906-AA.
T50 chain: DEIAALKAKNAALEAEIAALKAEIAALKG
Kind of test: two-hybrid library CCmax. The conditions noted are these: mean of both orientations.

For test [51], the target named is T51, 4H993-AA.
T51 chain: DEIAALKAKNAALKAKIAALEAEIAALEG
In words: two-hybrid library CCmax. The settings on record: mean of both orientations.

B1: 4H3843-bN (peptide)
chain: DKNQQLKQKIQELEQEIQELEWENQELEQ
Take B1: the interaction score was -1.58 in test [1]; -1.28 in test [2]; -0.816 in test [3]; -0.869 in test [4]; -1.31 in test [5]; -1.56 in [6]. Further, the interaction score in [7] is -1.71; in test [8], -0.609; in test [9] it was -0.63; in test [10], -1.05; in [11] it was -2.09; in [12], -1.23.

B2: zCON9_B (peptide)
chain: T13 chain
As for B2, the figures for the interaction score in [13] and in test [14] were 2 and -1.44, respectively.

B3: 4H234-AA (peptide)
chain: DEIAALEAENAALKAKIAALKAEIAALKG
With B3, the interaction score was 1.91 in test [15]; -0.425 in test [16]; 0.577 in test [17]; -0.379 in [18]; 1.67 in test [19]; -0.746 in test [20]. Besides, the interaction score was -1.32 in test [21]; 0.56 in test [22]; 1.8 in test [23]; 2.04 in [24]; -1.08 in [25]; -1.27 in test [26]. For the same molecule, the interaction score in test [27] is -1.71; in test [28], 1.73; in test [29] it was -1.22; in test [30], -1.11; in test [31], -0.996; in test [32] it was -1.24. Further, the interaction score in test [33] is 0.11; in [34] it was -1.32; in test [35] it was -0.346; in [36], -0.624; in [37], -0.983; in [38] it was -1.28. The interaction score was 0.388 in [39]; -1.25 in test [40]; 1.79 in [41]; -0.786 in test [42]; 0.581 in [43]; -1.45 in [44]. Moreover, the interaction score was 1.31 in test [45]; 0.359 in [46]; -1.42 in test [47]; -1.24 in test [48]; -1.05 in test [49]; 0.324 in [50]. The molecule further returned an interaction score in [51] of 1.77.

(Values after publication PMC10397247.)
